Measurements reported in patent US20220332795A1 (ARO BIOTHERAPEUTICS, published 2022).

Columns and labels:
CD71 apical domain [1] = biological target: T1, CD71 apical domain (UniProt P02786 189-383, limits assumed); experiment: solution ELISA
T1 construct: domain: Apical domain

[2] = biological target: T2, recombinant biotinylated human CD71 extracellular domain (human, UniProt P02786 89-760, biotinylated); experiment: solution ELISA
T2 construct: extracellular domain; also called hCD71; huCD71 ECD

CD71 apical domain [3] = biological target: T1, CD71 apical domain; experiment: solution ELISA, signal ratio to HSA
[4] = biological target: T2, recombinant biotinylated human CD71 …; experiment: solution ELISA, signal ratio to HSA

T2 sequence (P02786 other isoform, or with tags, fused parts or gaps): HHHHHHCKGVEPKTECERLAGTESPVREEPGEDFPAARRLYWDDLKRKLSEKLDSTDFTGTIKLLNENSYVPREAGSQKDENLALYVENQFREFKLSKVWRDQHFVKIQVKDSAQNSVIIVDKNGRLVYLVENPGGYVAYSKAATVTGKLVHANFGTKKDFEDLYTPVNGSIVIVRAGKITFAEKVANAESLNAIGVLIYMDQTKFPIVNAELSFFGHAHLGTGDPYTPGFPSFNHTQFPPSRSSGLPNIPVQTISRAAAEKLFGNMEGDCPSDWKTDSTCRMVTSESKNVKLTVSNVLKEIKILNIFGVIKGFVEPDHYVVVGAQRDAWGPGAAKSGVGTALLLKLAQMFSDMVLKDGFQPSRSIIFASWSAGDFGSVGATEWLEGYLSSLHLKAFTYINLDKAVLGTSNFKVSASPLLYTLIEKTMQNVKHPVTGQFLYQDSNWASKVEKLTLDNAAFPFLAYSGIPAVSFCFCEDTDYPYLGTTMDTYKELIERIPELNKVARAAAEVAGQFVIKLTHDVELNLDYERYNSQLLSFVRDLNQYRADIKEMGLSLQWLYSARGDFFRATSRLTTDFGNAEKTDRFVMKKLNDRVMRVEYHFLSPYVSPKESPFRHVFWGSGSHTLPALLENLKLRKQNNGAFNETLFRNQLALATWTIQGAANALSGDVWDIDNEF
T1 sequence (P02786 189-383 limits assumed): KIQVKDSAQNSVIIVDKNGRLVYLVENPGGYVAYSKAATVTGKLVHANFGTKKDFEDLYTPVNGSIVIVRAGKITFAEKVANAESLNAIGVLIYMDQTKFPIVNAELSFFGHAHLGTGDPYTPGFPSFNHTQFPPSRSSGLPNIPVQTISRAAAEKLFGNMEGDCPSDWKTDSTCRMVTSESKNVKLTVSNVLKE

Binder | Apical domain, RLU (CD71 apical domain [1]) [RLU] | hCD71, RLU [2] [RLU] | apical domain:HSA (CD71 apical domain [3]) | hCD71:HSA [4]
SEQ ID NO 168 (designed binder, FN3 domain) MLPAPKNLVVSRVTEDSARLSWTAPDAAFDSFYIAYAEPRPDGEAILLDVPGSERSYDLTGLKPGTEYSVLIHGVKGGLLSSPLSAIFTT | 6.86e+06 | 3.97e+06 | 468 | 271
SEQ ID NO 116 (designed binder, FN3 domain) MLPAPKNLVVSRVTEDSARLSWTAPDAAFDSFYIAYAEPRPDGEAIQLVVPGSERSYDLTGLKPGTEYSVLIHGVKGGLLSSPLSAIFTT | 4.93e+06 | 428000 | 427 | 37.1
SEQ ID NO 128 (designed binder, FN3 domain) MLPAPKNLVVSRVTEDSARLSWTAPDAAFDSFYIAYAEPRPDGEAIVLRVPGSERSYDLTGLKPGTEYSVLIHGVKGGLLSSPLIASFTT | 7.41e+06 | 4.31e+06 | 209 | 121
SEQ ID NO 134 (designed binder, FN3 domain) MLPAPKNLVVSRVTEDSARLSWTAPDAAFDSFYIAYAEPRPDGEAIGLQVPGSERSYDLTGLKPGTEYSVLIHGVKGGLLSSPLSAIFTT | 5.39e+06 | 640000 | 309 | 36.7
SEQ ID NO 132 (designed binder, FN3 domain) MLPAPKNLVVSRVTEDSARLSWTAPDAAFDSFFIPYAEPSPTGEAIVLTVPGSERSYDLTGLKPGTEYSVLIHGVKGGLLSSPLSAHFTT | 7.43e+06 | 1.78e+06 | 180 | 43.2
SEQ ID NO 112 (designed binder, FN3 domain) MLPAPKNLVVSRVTEDSARLSWTAPDAAFDSFYIAYAEPRPDGEAILLLVPGSERSYDLTGLKPGTEYSVLIHGVKGGLLSSPLSAIFTT | 7.7e+06 | 4.48e+06 | 709 | 413
SEQ ID NO 125 (designed binder, FN3 domain) MLPAPKNLVVSRVTEDSARLSWTAPDAAFDSFYIAYAEPRPDGEAIALHVPGSERSYDLTGLKPGTEYSVLIHGVKGGLLSSPLVAFFTT | 5.26e+06 | 1.23e+06 | 327 | 76.2
SEQ ID NO 131 (designed binder, FN3 domain) MLPAPKNLVVSRVTEDSARLSWTAPDAAFDSFYIAYAEPRPDGEAIHLWVPGSERSYDLTGLKPGTEYSVLIHGVKGGLLSSPLIAHFTT | 5.28e+06 | 203000 | 269 | 10.3
SEQ ID NO 120 (designed binder, FN3 domain) MLPAPKNLVVSRVTEDSARLSWTAPDAAFDSFYIAYAEPRPDGEAIHLSVPGSERSYDLTGLKPGTEYSVLIHGVKGGLLSSPLVAIFTT | 5.75e+06 | 501000 | 487 | 42.5
SEQ ID NO 127 (designed binder, FN3 domain) MLPAPKNLVVSRVTEDSARLSWTAPDAAFDSFYIAYAEPRPDGEAIFLGVPGSERSYDLTGLKPGTEYSVLIHGVKGGLLSSPLSAIFTT | 6.24e+06 | 1.41e+06 | 292 | 66.3
SEQ ID NO 145 (designed binder, FN3 domain) MLPAPKNLVVSRVTEDSARLSWTAPDAAFDSFYIAYAEPRPDGEAILLQVPGSERSYDLTGLKPGTEYSVLIHGVKGGLLSSPLTAIFTT | 8.3e+06 | 6.2e+06 | 466 | 348
SEQ ID NO 144 (designed binder, FN3 domain) MLPAPKNLVVSRVTEDSARLSWTAPDAAFDSFYIAYAEPRPDGEAIGLYVPGSERSYDLTGLKPGTEYSVLIHGVKGGLLSSPLGAFFTT | 3.91e+06 | 516000 | 234 | 30.8
SEQ ID NO 119 (designed binder, FN3 domain) MLPAPKNLVVSRVTEDSARLSWTAPDAAFDSFYIAYAEPRPDGEAINLDVPGSERSYDLTGLKPGTEYSVLIHGVKGGLLSSPLVAEFTT | 4.93e+06 | 1.25e+06 | 228 | 57.6
SEQ ID NO 129 (designed binder, FN3 domain) MLPAPKNLVVSRVTEDSARLSWTAPDAAFDSFYIAYAEPRPDGEAINLWVPGSERSYDLTGLKPGTEYSVLIHGVKGGLLSSPLDASFTT | 4.18e+06 | 219000 | 264 | 13.8
SEQ ID NO 137 (designed binder, FN3 domain) MLPAPKNLVVSRVTEDSARLSWTAPDAAFDSFYIAYAEPRPDGEAIVLDVPGSERSYDLTGLKPGTEYSVLIHGVKGGLLSSPLVAEFTT | 7.87e+06 | 5.11e+06 | 412 | 268
SEQ ID NO 143 (designed binder, FN3 domain) MLPAPKNLVVSRVTEDSARLSWTAPDAAFDSFYIAYAEPRPDGEAILLFVPGSERSYDLTGLKPGTEYSVLIHGVKGGLLSSPLVAHFTT | 7.51e+06 | 3.25e+06 | 363 | 157
SEQ ID NO 122 (designed binder, FN3 domain) MLPAPKNLVVSRVTEDSARLSWTAPDAAFDSFYIAYAEPRPDGEAIILVVPGSERSYDLTGLKPGTEYSVLIHGVKGGLLSSPLSAHFTT | 8.06e+06 | 4.77e+06 | 592 | 351
SEQ ID NO 113 (designed binder, FN3 domain) MLPAPKNLVVSRVTEDSARLSWTAPDAAFDSFYIAYAEPRPDGEAINLQVPGSERSYDLTGLKPGTEYSVLIHGVKGGLLSSPLVAFFTT | 5.83e+06 | 1.27e+06 | 196 | 42.6
SEQ ID NO 124 (designed binder, FN3 domain) MLPAPKNLVVSRVTEDSARLSWTAPDAAFDSFYIAYAEPRPDGEAIQLHVPGSERSYDLTGLKPGTEYSVLIHGVKGGLLSSPLLASFTT | 5.46e+06 | 1.54e+06 | 224 | 63.1
SEQ ID NO 104 (designed binder, FN3 domain) MLPAPKNLVVSRVTEDSARLSWTAPDAAFDSFYIAYAEPRPDGEAISLLVPGSERSYDLTGLKPGTEYSVLIHGVKGGLLSSPLYAVFTT | 5.9e+06 | 947000 | 559 | 89.8
SEQ ID NO 133 (designed binder, FN3 domain) MLPAPKNLVVSRVTEDSARLSWTAPDAAFDSFYIAYAEPRPDGEAIYLYVPGSERSYDLTGLKPGTEYSVLIHGVKGGLLSSPLDAFFTT | 4.74e+06 | 1.04e+06 | 186 | 41
SEQ ID NO 105 (designed binder, FN3 domain) MLPAPKNLVVSRVTEDSARLSWTAPDAAFDSFYIAYAEPRPDGEAIFLVVPGSERSYDLTGLKPGTEYSVLIHGVKGGLLSSPLHANFTT | 6.79e+06 | 2.43e+06 | 397 | 142
SEQ ID NO 138 (designed binder, FN3 domain) MLPTPKNLVVSRVTEDSARLSWTAPDAAFDSFYIAYAEPRPDGEAIQLRVPGSERSYDLTGLKPGTEYSVLIHGVKGGLLSSPLHASFTT | 5.35e+06 | 1.08e+06 | 369 | 74.3
SEQ ID NO 141 (designed binder, FN3 domain) MLPAPKNLVVSRVTEDSARLSWTAPDAAFDSFYIAYAEPRPDGEAIFLGVPGSERSYDLTGLKPGTEYSVLIHGVKGGLLSSPLIAFFTT | 4.96e+06 | 965000 | 190 | 37
SEQ ID NO 135 (designed binder, FN3 domain) MLPAPKNLVVSRVTEDSARLSWTAPDAAFDSFYIAYAEPRPDGEAIQLAVPGSERSYDLTGLKPGTEYSVLIHGVKGGLLSSPLHAFFTT | 6.05e+06 | 967000 | 263 | 42.1
SEQ ID NO 118 (designed binder, FN3 domain) MLPAPKNLVVSRVTEDSARLSWTAPDAAFDSFYIAYAEPRPDGEAIWLVVPGSERSYDLTGLKPGTEYSVLIHGVKGGLLSSPLVASFTT | 6.58e+06 | 1.73e+06 | 459 | 120
SEQ ID NO 117 (designed binder, FN3 domain) MLPAPKNLVVSRVTEDSARLSWTAPDAAFDSFYIAYAEPRPDGEAITLDVPGSERSYDLTGLKPGTEYSVLIHGVKGGLLSSPLSAIFTT | 5.36e+06 | 1.3e+06 | 312 | 75.4
SEQ ID NO 106 (designed binder, FN3 domain) MLPAPKNLVVSRVTEDSARLSWTAPDAAFDSFYIAYAEPRPDGEAILLDVPGSERSYDLTGLKPGTEYSVLIHGVKGGLLSSPLYASFTT | 7.37e+06 | 4.97e+06 | 176 | 118
SEQ ID NO 103 (designed binder, FN3 domain) MLPAPKNLVVSRVTEDSARLSWTAPDAAFDSFHIVYHEPRPSGEAIWLHVPGSERSYDLTGLKPGTEYEVGIVSVKGGDLSVPLVAFFTT | 4.14e+06 | 818000 | 143 | 28.2
